Measurements taken from US20200157194A1 (Regeneron, published 2020).
Where two headings read alike, the source gives them in different places.

T1: recombinant human GREM1 (hGREM1-His; C-terminal 10His tagged, R&D, #5190-GR) (human, UniProt O60565 25-184, limits assumed)
T1 sequence: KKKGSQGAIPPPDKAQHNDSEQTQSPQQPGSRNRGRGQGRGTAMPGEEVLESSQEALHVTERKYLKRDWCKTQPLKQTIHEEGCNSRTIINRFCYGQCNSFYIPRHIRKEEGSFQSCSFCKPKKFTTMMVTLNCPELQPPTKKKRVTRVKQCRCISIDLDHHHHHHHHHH

T2: human GREM1 (hGREM1-His; SEQ ID NO: 595) (human, UniProt O60565 25-184)
T2 construct: also called biotin-hGREM1-His; recombinant human GREM1 protein
T2 sequence: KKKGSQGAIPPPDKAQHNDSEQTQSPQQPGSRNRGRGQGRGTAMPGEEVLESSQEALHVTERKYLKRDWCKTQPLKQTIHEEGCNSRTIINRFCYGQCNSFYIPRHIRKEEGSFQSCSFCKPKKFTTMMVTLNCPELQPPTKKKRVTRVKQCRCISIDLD


What was measured:
[1] = biological target: T1, recombinant human GREM1 (hGREM1-His; …); experiment: cell-based or functional assay
[2] = biological target: T2, human GREM1 (hGREM1-His; SEQ ID NO: 595); experiment: SPR, Biacore T200, 25 C, mAb captured, hGREM1-His injected;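 further: Heparin-supplemented HBS-EP+ used as running buffer, association and dissociation phases followed, Kd computed as koff divided by kon and half-life derived from koff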
Experimental: Kinetic experiments were carried out using HBS-EP+heparin [10 mM HEPES, 150 mM NaCl, 3 mM EDTA, 0.05% (v/v) surfactant P20, 10 μg/ml heparin sodium salt, pH 7.4] as both the running buffer and the sample buffer. […] Antigen-antibody association was monitored for 150 seconds while dissociation in buffer was monitored for 420 seconds. Kinetic analysis was performed using Scrubber software version 2.0a or Biacore T200 evaluation software v1.0 to determine kₐ and kd values. KD and t_{1/2} were then calculated from the experimentally determined kₐ and kd values as KD=kd/kₐ and t_{1/2}=In(2)/kd.

[3] = biological target: T1, recombinant human GREM1 (hGREM1-His; …); experiment: BLI Octet, mAb captured, 100 nM GREM1;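 further: octet Red96 biolayer interferometry at 25 °C in pH 7.4 HEPES saline buffer, antibodies held on anti-human IgG Fc capture biosensors, then exposed to GREM1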
[4] = biological target: T1, recombinant human GREM1 (hGREM1-His; …); experiment: BLI Octet, mAb captured, 100 nM GREM1 + 5 uM heparin;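 further: octet Red96 biolayer interferometry at 25 °C, antibodies captured on anti-human IgG Fc biosensors, pH 7.4 HEPES buffer with 0.1 mg/mL BSA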
Experimental: Binding measurements were conducted using an Octet Red96 label-free biomolecular interaction instrument (ForteBio). All experiments were performed at 25° C. using plate agitation at 1000 rpm. Solutions were made in an aqueous buffer containing 10 mM HEPES, 150 mM NaCl, 3 mM EDTA 0.05% P20, 0.1 mg/mL BSA and adjusted to pH of 7.4 (HBST buffer).
Anti-Human IgG Fc Capture biosensors (ForteBio) were separately loaded with 50 μg/mL solutions of 24 different anti-GREM1 antibodies for 60 seconds. Following a 30 second wash, duplicate biosensors for each antibody were submerged into wells containing either 100 nM GREM1 solutions or 100 nM GREM1 solutions containing 5 μM of heparin, measuring association for 300 seconds.

[5] = biological target: T1, recombinant human GREM1 (hGREM1-His; …); experiment: BLI Octet, mAb captured, 100 nM GREM1 without vs with 5 uM heparin;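 further: octet Red96 biolayer interferometry at 25 °C, antibodies captured on anti-human IgG Fc biosensors, association of GREM1 measured with versus without heparin in HEPES-buffered saline, pH 7.4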
[6] = biological target: T2, human GREM1 (hGREM1-His; SEQ ID NO: 595); experiment: SPR, Biacore T200, 37 C, mAb captured, hGREM1-His injected;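 further: HBS-EP running buffer containing heparin, association and dissociation phases tracked, KD computed as koff over kon and half-life derived from koff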
[7] = biological target: T1, recombinant human GREM1 (hGREM1-His; …); experiment: cell-based or functional assay; remark: listed apart in the source
[8] = biological target: T2, human GREM1 (hGREM1-His; SEQ ID NO: 595); experiment: competition ELISA, biotin-hGREM1-His (100 pM) binding to coated hBMP4
Experimental: Data were analyzed using a sigmoidal dose-response model within Prism™ software. […] The absorbance values of the wells containing the highest concentration for each antibody were used to determine the percent maximum blocking.

[9] = biological target: T1, recombinant human GREM1 (hGREM1-His; …); experiment: cell-based or functional assay; remark: listed apart in the source

Binder	IC50 [M], inhibition of hGREM1-His, W-20-17/BRE-luc luciferase (100 pM hBMP4, 10 nM hGREM1-His) [1]	Kd [2]	koff [2]	kon [2]	t1/2 [2]	IC50 [M], inhibition of hGREM1-His, W-20-17/BRE-luc luciferase (200 pM hBMP4, 20 nM hGREM1-His) [1]	other results
H2aM2898N (antibody, mouse IgG2, V domains shown, H2M prefix = mouse IgG2 Fc (here H2aM); also called H2M2898N) VH: EVQLVESGGGLVQPGGSLRLSCAASGFTFSIYDMHWVRQATGKGLEWVSGIGNAGDTYYAGSVKGRFTISRENAKNSLYLQMNSLRAGDTAVYYCAREGPNYYYYGMDVWGQGTTVTVSS VL: AIQMTQSPSSLSASVGDRVTITCRASQGIRDDLGWYQQKPGKAPKLLIYAASSLQSGVPSRFSGSGSGTDFTLTISSLQPEDFATYYCLQDYNYPWTFGQGTKVEIK	1.4e-09 M						binding result [2]: no binding (tested: 11 to 100 nM hGREM1-His injected)
H1M2907N (antibody, V domains shown, H1M prefix marks the Fc (chimeric, mouse constant domains)) VH: QVQLVESGGGVVQPGRSLRLSCAASGFTFSSYGMHWVRQAPGKGLEWVAIIWNDGSNKYYVDSVKGRFTISRANSKNTLYLQMNSLRAEDTAVYYCARDGLEPDAFDIWGQGTMVTVSS VL: EIVLTQSPATLSLSPGERATLSCRASQSVSSFLAWYQQKPGQAPRLLIYDASNRATGIPARFSGSGSGTDFTLTISSLEPEDFAVYYCQQRSNWPPYTFGQGTKLEIK	1.8e-09 M	45.3 nM	0.00281 s⁻¹	62000 M⁻¹ s⁻¹	4.1 min		
H2aM2901N (antibody, mouse IgG2, V domains shown, H2M prefix = mouse IgG2 Fc (here H2aM); also called H2M2901N) VH: EVQLVESGGGLVKPGGSLRLSCAASGFTFSYYSMIWVRQAPGKGLEWVSSISSSSSYIYYADSVKGRFTISRDNAKKSMYLQMNSLRAEDTAVYYCARGSGYPDYWGQGTLVTVSS VL: DIQMTQSPSSLSASVGDRVTITCRASQGINNYLAWYQQKPGKVPKLLIYAASTLRSGVPSRFSGSGSGTDFTLTISSLQPEDVATYYCQKYNSAPFTFGPGTKVDIK	1.7e-09 M	8.8 nM	0.00145 s⁻¹	164000 M⁻¹ s⁻¹	8 min		
H4H6270P (antibody, human IgG4, V domains shown, H4H prefix = human IgG4 Fc) VH: QVQLVESGGDVVQPGRSLRLSCAASGFTFSSYGMHWVRQAPGKGLEWVAIIWNDGSNKYYTDSVKGRFTISRDNSKNTLYLQMNGLRAEDTAIYYCARDQDQFDYWGQGTLVTVSS VL: EIVMTQSPATLSVSPGERATLSCRASQSISTNLAWYRQKPGQAPRLLIYDASTRATGIPARFSGSGSGTDFTLTISSLQSEDFAVYYCQQYSNWPPYTFGQGTKLEIK		4.08 nM	0.000175 s⁻¹	42900 M⁻¹ s⁻¹	66 min		Binding Signal with 30 sec Association [3]: 0.2 nm; Binding Signal with 300 sec Association [3]: 0.39 nm; Binding Signal with 30 sec Association [4]: 0.05 nm; Binding Signal with 300 sec Association [4]: 0.33 nm; Reduction in Signal from Heparin at 30 sec [5]: 0.15 nm; Reduction in Signal from Heparin at 300 sec [5]: 0.06 nm; Kd [6]: 6.79 nM; koff [6]: 0.00065 s⁻¹; kon [6]: 95800 M⁻¹ s⁻¹; t1/2 [6]: 18 min; hGREM1-His Inhibition IC50, M; W-20-17 cell differentiation assay (alkaline phosphatase) [7]: 3.1 nM; % blocked at maximum Ab tested (20 nM) [8]: 62%; IC50 [8]: 1.9 nM; IC50 [M], inhibition of hGREM1-His, W-20-17/BRE-luc luciferase (100 pM hBMP4, 10 nM hGREM1-His) [9]: 5.4e-10 M
H3M2929N (antibody, V domains shown, H3M prefix marks the Fc (chimeric, mouse constant domains)) VH: QVQLVESGGGVVQPGRSLRLSCAASGFIFSSYGMHWVRQAPGKGLEWVAVIWNDGSNKYSADSVKGRFTVSRDNSKNTLYLQMNSLKAEDTAVYYCARDGEWEVFDYWGQGTLVTVSS VL: DIVMTQSPVTLSASPGERATLSCRASQSVRSNLAWYQEKPGQAPRLLIYGASTRATGIPARFSGSGSGTEFTLTISSLQSEDFAVYYCQQYNDWPPWTFGQGTKVEIK	2.2e-09 M	29 nM	0.00362 s⁻¹	125000 M⁻¹ s⁻¹	3 min		
H2bM2891N (antibody, mouse IgG2, V domains shown, H2M prefix = mouse IgG2 Fc (here H2bM); also called H2M2891N) VH: EVQMVESGGGLVQPGGSLRLSCAASRFTLSNYWMGWVRQAPGKGLEWVANIKQDGSEKYYVDSVRGRFTISRDNAKNSLYLQMNSLRAEDTAVYYCARDYDFWRSFDYWGQGTLVTVPS VL: DIQMTQSPSSVSASVGDRVTITCRASQGVSSWLAWYQQTPGKAPKLLIYVVSSLQSGVPSRFSGSGSGTDFTLTINSLQPEDFATYYCQQGNSFPYTFGQGTKLEIK	1.1e-09 M	60 nM	0.0012 s⁻¹	20000 M⁻¹ s⁻¹	9.6 min		

Second part, led by results:

IC50 [M], inhibition of hGREM1-His, W-20-17/BRE-luc luciferase (100 pM hBMP4, 10 nM hGREM1-His) [1]	Kd [2]	koff [2]	kon [2]	t1/2 [2]	IC50 [M], inhibition of hGREM1-His, W-20-17/BRE-luc luciferase (200 pM hBMP4, 20 nM hGREM1-His) [1]	Binder	other results
2.1e-09 M	270 nM	0.002 s⁻¹	8000 M⁻¹ s⁻¹	5.8 min		H2aM2899N (antibody, mouse IgG2, V domains shown, H2M prefix = mouse IgG2 Fc (here H2aM); also called H2M2899N) VH: QVQLVQSGAEVKKPGASVKVSCKASGFTFTSYDINWVRQATGQGLEWMGWMNPKSGNTDYAQKFLGRVTLTRNTSKSTAYMELSSLRSEDTAVYYCARGKQLVFDYWGQGTLVTVSA VL: not shown	
	4.2 nM	0.00035 s⁻¹	80000 M⁻¹ s⁻¹	33 min	2.5e-08 M	H3M2788N (antibody, V domains shown, H3M prefix marks the Fc (chimeric, mouse constant domains)) VH: QVQLVESGGGVVQPGRSLRLSCAASGFTFSSHGMHWVRQAPGKGLEWVAVIWYDGSNKYHADSVKGRFTIYRDNSKNTLDLQMNSLRVEDTAMYYCAREDSNNEDLDYWGQGTLVTVSS VL: DIQMTQSPSSLSASVGDRVTITCRASQGIRNDLGWFQQKPGKAPKRLIYVASNLQSGVPSRFSGSGSGTEFTLTISSLQPEDFATYYCLQHSNYPPWTFGQGTKVEIK	
					2.7e-08 M	H2bM2785N (antibody, mouse IgG2, V domains shown) VH: EVQLLESGGGLVQPGGSLRLSCAASGFTFSSYVMNWVRQAPGKGLEWVSAISGSGGSTSYADSVKGRSTISRDNSKNTLYLQMNSLRAEDTAVYYCAKGDIAAIVFDAFDIWGQGTMVTVSS VL: DIQMTQSPSSLSASVGDRVTITCQASQDISNCLNWYQHKPGKAPKLLIYDASYLETGGPSRFSGSGSGTDFTFTIRSLQPEDFATYYCQQYDNLPYTFGQGTKLEIK	
	33 nM	0.006 s⁻¹	180000 M⁻¹ s⁻¹	1.9 min	1.9e-08 M	H2bM2786N (antibody, mouse IgG2, V domains shown, H2M prefix = mouse IgG2 Fc (here H2bM); also called H2M2786N) VH: EVHLLESGGGLVQPGGSLRLSCAASGFTFSSYVMNWVRQAPGKGLEWVSAISGSGGSTYYGDSVKGRSTISRDNSKNTLYLQMKSLRAEDTAVYYCAKGDIAPIVFDAFDIWGQGTMVTVSS VL: DIQMTQSPSSLSASVGDRVTITCQASQDISNCLNWYQHKPGKAPKLLIYDASYLETGVPSRFSGSGSGTDFTFTISSLQPEDIATYYCQQYDNLPYTFGQGTKLEIK	
2.1e-09 M	130 nM	0.001 s⁻¹	10000 M⁻¹ s⁻¹	11.6 min		H2bM2890N (antibody, mouse IgG2, V domains shown, H2M prefix = mouse IgG2 Fc (here H2bM); also called H2M2890N) VH: QVQLVESGGGVVQPGRSLRLTCAASGFTFSSFGMHWVRQAPGKGLEWVAIIWYDGSNKYYADSVKGRFTISRDNSKNTLYLQMNSLRAEDTAVYYCAREDNWTRDYFDYWGQGTLVTVSS VL: EIVLTQSPATLSLSPGERATLSCRASQSVSNFLAWYQQKPGQAPRLLIYDASNRATGIPARFSGSGSGTDFTLTISSLEPEDFAVYYCQQRSNWPPLPFGGGTKVEIK	
	15.3 nM	0.00189 s⁻¹	123000 M⁻¹ s⁻¹	6.1 min	3.5e-09 M	H2bM2782N (antibody, mouse IgG2, V domains shown, H2M prefix = mouse IgG2 Fc (here H2bM); also called H2M2782N) VH: EVQLVESGGGLVQPGGSLRLSCAASGFTFSSYSMNWVRQAPGKGLEWVSSISSSSNYINYADSIKGRFTISRDNAKNSLYLQMNSLRAEDTAVYYCARVNWDYPFDCWGRGTLVTVSS VL: DIQMTQSPSSLSASVGDRVTITCRASQDIRHYLVWYQQKPGKVPKLLIYAASTLQSGVPSRFSGSGSGTDFILTISSLQPEDVATYYCQKYNSAPFTFGPGTKVDIK	
1.6e-09 M	15 nM	0.0013 s⁻¹	80000 M⁻¹ s⁻¹	8.9 min		H2bM2906N (antibody, mouse IgG2, V domains shown, H2M prefix = mouse IgG2 Fc (here H2bM); also called H2M2906N) VH: EVQMVESGGGLVQPGGSLRLSCAASGFTLSNYWMGWVRQAPGKGLEWVANIKQDGSEKYYVDSVRGRFTISRDNAKNSLYLQMNSLRAEDTAVYYCARDYDFWRSFDYWGQGTLVTVSS VL: DIQMTQSPSSVSASVGDRVTITCRASQGVSSWLAWYQQKPGKTPKLLIYVVSSLQSGVPSRFSGRGSGTDFTLTINSLQPEDFATYYCQQGNSFPYTFGQGTKLEIK	
